According to paper PMC10700143:

What was measured:
[1] = molecular target: HKU1-A spike protein ectodomain (strain Caen1), trimeric, furin cleavage site mutated, with GCN4 trimerization motif (human coronavirus HKU1 (serotype A, strain Caen1)); assay: cryo-EM structure; apo: 4.3 µM HKU1 spike trimer without ligand, applied to grids at 4 °C; single-particle analysis, C3 symmetry imposed
[2] = molecular target: HKU1-A spike protein ectodomain (strain Caen1), trimeric, furin cleavage site mutated, with GCN4 trimerization motif (human coronavirus HKU1 (serotype A, strain Caen1)); assay: cryo-EM structure; 3 µM wild-type or W89A spike trimer with 300 µM 9-O-acetylated disialoside, incubated at room temperature for about 10 min before vitrification; single-particle analysis
[3] = molecular target: W89A mutant HKU1-A spike protein ectodomain (human coronavirus HKU1 (serotype A)); assay: as above

| Substance | stoichiometry N [1] | stoichiometry N [2] | stoichiometry N [3] |
| --- | --- | --- | --- |
| HKU1-A spike protein ectodomain (strain Caen1), trimeric, furin cleavage site mutated, with GCN4 trimerization motif (domain or fragment) | 3 | 3 |  |
| W89A mutant HKU1-A spike protein ectodomain (domain or fragment) |  |  | 3 |
